Paper PMC2192122

These molecules were tested against MHC class II molecule I-Ad (mouse (endogenous in A20 lymphoma cells)) (assay: radioligand binding). Conditions: not given.

| IC50 [nM] | Molecule |
| --- | --- |
| 131 | OVA peptide 323-339 (unlabeled) (from UniProt P01012 324-340) |

Same assay, conditions: scale: relative to unlabeled OVA peptide 323-339

| Molecule | relative binding to MHC |
| --- | --- |
| IKYLEFIGEAII [SWM peptide 101-112-[G108]] | 0.003 |
| KYLEFIGEAIIH [SWM peptide 102-113-[G108]] | 0.011 |
| YLEFIGEAIIHV [SWM peptide 103-114-[G108]] | 0.04 |
| LEFIGEAIIHVL [SWM peptide 104-115-[G108]] | 0.013 |
| EFGSEAIIHVLH [SWM peptide 105-116-[G107]] | 0.34 |

Results, then the molecule that gave them:

| relative binding to MHC | Molecule |
| --- | --- |
| 0.1 | SWM peptide 105-116-[G108] (from UniProt P02185 106-117) |
| 0.01 | EFISEAIIHILH [SWM peptide 105-116-[I114]] |
| 1.5 | EFISEAIIHVLH [sperm whale myoglobin (SWM) peptide 105-116] |
| 1.8 | EFISEAIIPVLH [SWM peptide 105-116-[P113]] |
| 0.18 | EFISEAIIHLLH [SWM peptide 105-116-[L114]] |
| 0.59 | AIIHVLHSRHPG [sperm whale myoglobin (SWM) peptide 110-121] |
